The text below walks through data of patent publication US20100119450A1 (published 2010).

For test [1], the target named is T1, amyloid-β peptide Aβ1-42 (wild-type) (UniProt P05067 672-713).
T1 construct: domain: Aβ1-42; Synthetic peptide; also called Aβ42
Description: SPR (BIACORE X), LRP-1 cluster immobilized on CM5 chip, Aβ in solution; apparent Kd from koff/kon. The method, then: (§1) Incubation conditions as described under Materials and Methods. […] Apparent affinity constants K_{d(app)} were deduced from the ratios of k_{off(app)}/kₒₙ₍ₐₚₚ₎ as described under Materials and Methods. […] K_{d(app)} (mean±SD) values were determined from 6 to 9 different concentrations of Aβ and 3 to 5 independent measurements at each concentration.
(§2) (as described in Westein et al., 2002). […] Ligand solution was replaced with buffer to initiate dissociation. The data were analyzed to calculate apparent association rate constants kₒₙ₍ₐₚₚ₎ and apparent dissociation rate constants k_{off(app)} using a single-site binding model (as described in Westein et al., 2002). Apparent affinity constants K_{d(app)} were inferred from the ratio k_{off(app)}/kₒₙ₍ₐₚₚ₎. Data are based on three to five measurements using six to nine different concentrations for each measurement. Data are presented as the mean±SEM. Analysis was performed using BIACORE X biosensor system (Uppsala, Sweden) and BIA evaluation 3.0 software (Biocore, Sweden).
(Surface plasmon resonance follows binding to a sensor surface in real time, without labels.)

Test [2] concerns the target T2, amyloid-β peptide Aβ1-40 (wild-type) (UniProt P05067 672-711).
T2 construct: domain: Aβ1-40; Soluble monomeric synthetic peptide; used 125I-labeled as tracer in capillary and in vivo studies; also called Aβ40; wild-type Aβ1-40
The description is as above. The method, then:
as §1, §2

B1: recombinant LRP-1 fragment encompassing cluster II (receptor, UniProt Q07954 805-1184, looked up)
chain: NKCRVNNGGCSSLCLATPGSRQCACAEDQVLDADGVTCLANPSYVPPPQCQPGEFACANSRCIQERWKCDGDNDCLDNSDEAPALCHQHTCPSDRFKCENNRCIPNRWLCDGDNDCGNSEDESNATCSARTCPPNQFSCASGRCIPISWTCDLDDDCGDRSDESASCAYPTCFPLTQFTCNNGRCININWRCDNDNDCGDNSDEAGCSHSCSSTQFKCNSGRCIPEHWTCDGDNDCGDYSDETHANCTNQATRPPGGCHTDEFQCRLDGLCIPLRWRCDGDTDCMDSSDEKSCEGVTHVCDPSVKFGCKDSARCISKAWVCDGDNDCEDNSDEENCESLACRPPSHPCANNTSVCLPPDKLCDGNDDCGDGSDEGELCDQ
notes: domain: cluster II; Produced in stably transfected baby hamster kidney cells as described in Westein et al., 2002; immobilized on CM5 chip; also called LRP-1 cluster II; LRP-1 II
For the molecule B1, the results for the Kd in test [1] and in test [2] were 3 nM and 0.57 nM, respectively.

B2: recombinant LRP-1 fragment encompassing cluster IV (receptor)
chain: not shown
notes: domain: cluster IV; Produced in stably transfected baby hamster kidney cells as described in Westein et al., 2002; immobilized on CM5 chip; also called LRP-1 cluster IV; LRP-1 IV
B2: the results for the Kd in test [1] and in test [2] were 10.1 nM and 1.24 nM, respectively.
